Measured values taken from patent US20150203577A1 (Chugai, published 2015).
Numbering of substitutions follows the chain as printed.

B1: MB853 (antibody, mouse IgG1, kappa)
heavy: QVQLQESGPGLVKPSETLSLTCAVSGHSISHDHAWSWVRQPPGEGLEWIGFISYSGITNYNPSLQGRVTISRDNSKNTLYLQMNSLRAEDTAVYYCARSLARTTAMDYWGEGTLVTVSSAKTTPPSVYPLAPGSAAQTNSMVTLGCLVKGYFPEPVTVTWNSGSLSSGVHTFPAVLQSDLYTLSSSVTVPSSTWPSETVTCNVAHPASSTKVDKKIVPRDCGCKPCICEPNEVELVFIFPPKPKDVLTITLTPKVTCVVVDISKDDPEVQFSWFVDDVEVHTAQTQPREELFNSTFRSVSELPIMHQDWLNGKEFKCRVNSDGFPAYIEKTISKTKGRPKAPQVYTIPPPKEQMAKDKVSLTCMITDFFPEDITVEWQWNGQPAENYKNTQPIMDTDGSYFVYSKLNVQKSNWEAGNTFTCSVLHEGLHNHHTEKSLSHSPGK
light: not shown
notes: CH name; VH H237 + CH, L chain MRAL-k0; copies: 2 + 2
B2: MB859 (antibody, mouse IgG1, kappa)
heavy: B1 heavy with L291Q, K330R
light: not shown
notes: as for B1
B3: MB857 (antibody, mouse IgG1, kappa)
heavy: B1 heavy with L291Q, N320D, Y327P, E329Y
light: not shown
notes: as for B1
B4: MB854 (antibody, mouse IgG1, kappa)
heavy: B1 heavy with Y327P, E329Y
light: not shown
notes: as for B1
B5: MB858 (antibody, mouse IgG1, kappa)
heavy: B1 heavy with L291Q, N320D, Y327P, K330R
light: not shown
notes: as for B1
B6: MB855 (antibody, mouse IgG1, kappa)
heavy: B1 heavy with Y327P, K330R
light: not shown
notes: as for B1
B7: MB860 (antibody, mouse IgG1, kappa)
heavy: B1 heavy with L291Q, Y327P, E329Y, K330R
light: not shown
notes: as for B1
B8: MB865 (antibody, mouse IgG1, kappa)
heavy: B1 heavy with K264D, Y327P
light: not shown
notes: as for B1
B9: MB861 (antibody, mouse IgG1, kappa)
heavy: B1 heavy with K264D, L291Q, N320D, Y327P
light: not shown
notes: as for B1
B10: MB864 (antibody, mouse IgG1, kappa)
heavy: B1 heavy with K264D, L291Q, Y327P, K330R
light: not shown
notes: as for B1
B11: MB856 (antibody, mouse IgG1, kappa)
heavy: B1 heavy with L291Q, N320D
light: not shown
notes: as for B1
B12: MB863 (antibody, mouse IgG1, kappa)
heavy: B1 heavy with K264D, L291Q, Y327P, E329Y
light: not shown
notes: as for B1
B13: MB862 (antibody, mouse IgG1, kappa)
heavy: B1 heavy with K264D, L291Q
light: not shown
notes: as for B1
B14: H237-MB626/MRAL-k0 (antibody, mouse IgG1, kappa)
heavy: B1 heavy with P230T, N231Y, L291Q, D322A, G323A, Y327P
light: not shown
notes: mouse IgG1 CH variant; copies: 2 + 2
B15: H237-MB611/MRAL-k0 (antibody, mouse IgG1, kappa)
heavy: B1 heavy with E229T, P230V, N231P, V233E, E234D, L235E, L291Q, D322A, G323A, Y327P
light: not shown
notes: as for B14
B16: H237-MB633/MRAL-k0 (antibody, mouse IgG1, kappa)
heavy: B1 heavy with P230D, N231Y, L235N, L291Q, D322A, G323A, Y327P
light: not shown
notes: as for B14
B17: H237-MB618/MRAL-k0 (antibody, mouse IgG1)
heavy: B1 heavy with E229T, P230V, N231P, V233E, E234D, L235D, L291Q, D322A, G323A, Y327P
light: not shown
notes: as for B14
B18: H237-MB624/MRAL-k0 (antibody, mouse IgG1, kappa)
heavy: B1 heavy with P230D, N231Y, L291Q, D322A, G323A, Y327P
light: not shown
notes: as for B14
B19: H237-MB617/MRAL-k0 (antibody, mouse IgG1, kappa)
heavy: QVQLQESGPGLVKPSETLSLTCAVSGHSISHDHAWSWVRQPPGEGLEWIGFISYSGITNYNPSLQGRVTISRDNSKNTLYLQMNSLRAEDTAVYYCARSLARTTAMDYWGEGTLVTVSSAKTTPPSVYPLAPGSAAQTNSMVTLGCLVKGYFPEPVTVTWNSGSLSSGVHTFPAVLQSDLYTLSSSVTVPSSTWPSETVTCNVAHPASSTKVDKKIVPRDCGCKPCICTVPEESDVDIFPPKPKDVLTITLTPKVTCVVVDISKDDPEVQFSWFVDDVEVHTAQTQPREEQFNSTFRSVSELPIMHQDWLNGKEFKCRVNSAAFPAPIEKTISKTKGRPKAPQVYTIPPPKEQMAKDKVSLTCMITDFFPEDITVEWQWNGQPAENYKNTQPIMDTDGSYFVYSKLNVQKSNWEAGNTFTCSVLHEGLHNHHTEKSLSHSPGK
light: not shown
notes: as for B14
B20: H237-MB637/MRAL-k0 (antibody, mouse IgG1, kappa)
heavy: B1 heavy with N231A, L235N, L291Q, D322A, G323A, Y327P
light: not shown
notes: as for B14
B21: H237-MB607/MRAL-k0 (antibody, mouse IgG1, kappa)
heavy: B19 heavy with S234E, D235E, D237F
light: not shown
notes: as for B14

target: T1, mouse FcγRII (mouse, UniProt P08101 30-210); assay: SPR (Biacore T200); KD of H237-MB630/MRAL-k0 / KD of variant
T1 construct: Extracellular domain with C-terminal His tag; also called mFcγRII; mFcgRII
T1 sequence: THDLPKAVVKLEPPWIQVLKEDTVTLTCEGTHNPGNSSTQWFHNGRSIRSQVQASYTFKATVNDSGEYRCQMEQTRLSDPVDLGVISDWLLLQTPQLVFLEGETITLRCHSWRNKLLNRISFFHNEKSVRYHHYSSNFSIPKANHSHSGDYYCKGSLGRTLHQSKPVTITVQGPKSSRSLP

Binder	Relative mFcγRII-binding activity (MB630 = 1) [fold]
B1	3.31
B2	3.22
B3	4.21
B4	4.77
B5	5.86
B6	3.41
B7	3.74
B8	7.91
B9	7.25
B10	10.4
B11	4.23
B12	7.68
B13	6.41

Target: T2, mouse FcγRIII (mouse, UniProt P08508 31-215)
T2 construct: Extracellular domain with C-terminal His tag; also called mFcγRIII; mFcgRIII
T2 chain: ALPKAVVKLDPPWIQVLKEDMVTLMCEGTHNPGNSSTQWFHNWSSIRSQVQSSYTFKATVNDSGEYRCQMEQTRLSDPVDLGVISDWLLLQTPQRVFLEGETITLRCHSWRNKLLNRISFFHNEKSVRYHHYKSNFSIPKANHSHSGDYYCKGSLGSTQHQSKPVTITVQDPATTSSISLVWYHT
Assay: as above

Binder	Relative mFcγRIII-binding activity (MB630 = 1) [fold]
B1	6.2
B2	3.9
B3	4.92
B4	6.84
B5	6.92
B6	6.21
B7	4.07
B8	18.3
B9	13.2
B10	19.9
B11	4.95
B12	12.7
B13	10.8

target: T1, mouse FcγRII; assay: SPR (Biacore T200); KD of H237-mIgG1/MRAL-k0 / KD of variant

Binder	relative mFcγRII-binding activity (mIgG1 = 1) [fold]
B1	35
B2	34.2
B3	44.6
B4	50.6
B5	62
B6	36.2
B7	39.6
B8	83.8
B9	76.8
B10	110
B11	44.8
B12	81.3
B13	67.9

Target: T2, mouse FcγRIII
Assay: as above

Binder	relative mFcγRIII-binding activity (mIgG1 = 1) [fold]
B1	1.13
B2	0.71
B3	0.9
B4	1.25
B5	1.27
B6	1.14
B7	0.75
B8	3.34
B9	2.41
B10	3.63
B11	0.91
B12	2.33
B13	1.98

Target: T3, mouse FcγRIII (mouse, UniProt P08508 31-215)
T3 construct: also called mFcγRIII; mFcgRIII
T3 chain: T2 chain
Assay: SPR (Biacore), antibody captured on Protein L, mFcγR as analyte
Procedure: (§1) Each altered antibody was analyzed for its interaction with each Fcγ receptor prepared above using Biacore T100 (GE Healthcare Japan Corp.), Biacore T200 (GE Healthcare Japan Corp.), Biacore A100, or Biacore 4000. The running buffer used was HBS-EP+ (GE Healthcare Japan Corp.). The assay temperature was set to 25° C. The sensor chips used were chips prepared by immobilizing Protein L (ACTIGEN or BioVision) onto Series S Sensor Chip CM5 (GE Healthcare Japan Corp.) or Series S Sensor Chip CM4 (GE Healthcare Japan Corp.) by the amine coupling method.
(§2) In order to calculate the KD value of each altered antibody for FcγR, kinetic analysis was conducted according to the following method: first, the antibody of interest was captured onto any of these chips and allowed to interact with mFcγR diluted with a running buffer. For the obtained sensorgram, the assay results were globally fit into the 1:1 Langmuir binding model using Biacore Evaluation Software to calculate an association rate constant ka (L/mol/s) and a dissociation rate constant kd (1/s). From these values, the dissociation constant KD (mol/L) was calculated.

Binder	Kd [nM]	relative mFcγRIII-binding activity (mIgG1 = 1) [fold]
B14	2370	0.14
B15	3420	0.09
B16	1640	0.2
B17	2730	0.13
B18	2870	0.11
B19	2100	0.15
B20	1890	0.17
B21	1770	0.18

target: T4, mouse FcγRII (mouse, UniProt P08101 30-210); assay: as above
T4 construct: also called mFcγRII; mFcgRII
T4 sequence: T1 sequence
Procedure: as §1, §2

Binder	Kd [nM]	relative mFcγRII-binding activity (mIgG1 = 1) [fold]
B14	261	0.89
B15	192	1.11
B16	75.8	3.05
B17	156	1.63
B18	263	0.88
B19	255	0.84
B20	80.7	2.87
B21	67.9	3.14
